According to publication PMC5415106:

B1: GST-Dpb11-wild-type [budding yeast] / Cdc45 (purified, radiolabelled) [budding yeast] (parent)
chain 1: MKPFQGITFCPTAINNEILAKKISKKIIKLGGIFSKDLTRQVNVLVVGSTTNTNKFKFAVKHRFDIIFIDIQAIDDIYQLWLSGENILPDSNTATMTGSTYEMLKILYRRFSFKYLHNFNIFIGRITDTNITSIDSLVRSIKKLGCSSYNYQNFVIKDTSSHNDDDDQGQNGQISIFVTDTLLGARVNAAIEQNIPIVHFKWILDCQKRSALLPYDPYYLLPNIKDLPYDSIGSNSCDCWDKINTTFPTNIDAQSSLQRQQSSSTLTPSLPKTSSLLNKFKPKGEKIWDKAMSLQQHSKTNFSVLGQSPLSINNKQEDLSDNSTLIFKNCAFIIHHIFPGNHRSILTKIVVQNGGKIETSYLSGIYDHSYYIIPSNKALDSFNDLPEIIDDNDGIVTEFFIERCLYYQKLLHPIDLWSKPFLSTIEFQVSSSSKLLHHEFSSSPFLNVTITGFSGVELLHLTKVLNLLKPMGINYVEYLNKSTDILLINLAALPSIPKTHPLWSNEFSDLFTQFCINNNNDDPGDNNRKDFQNNSILRNSMKRKIEYIKKFHSIPVVTPAFIFKLLSAASGENNEIFLNNIKWCIICPRGHKDDFKCKIKKPYYTSISSEKKYQNNDPKIDKTILLKRNNSSLSEHSMKDTKNELLQKIRETDSGRKKRSVSSSIMDVSSERQMPDTKRIKLESLPKNFVPKQIKRTTSWGTIMSENVPTEQPTAISNPEEIPRTEEVSHTQVTYGSIQDKKRTASLEKPMRRQTRNQTKELDS
chain 2: MYYGISQFSEAYNKILRNSSSHSSCQLVIFVSCLNIDALCATKMLSLLFKKQLVQSQIVPIFGYSELRRHYSQLDDNINSLLLVGFGGVIDLEAFLEIDPQEYVIDTDEKSGEQSFRRDIYVLDAHRPWNLDNIFGSQIIQCFDDGTVDDTLGEQKEAYYKLLELDEESGDDELSGDENDNNGGDDEATDADEVTDEDEEDEDETISNKRGNSSIGPNDLSKRKQRKKQIHEYEGVLEEYYSQGTTVVNSISAQIYSLLSAIGETNLSNLWLNILGTTSLDIAYAQVYNRLYPLLQDEVKRLTPSSRNSVKTPDTLTLNIQPDYYLFLLRHSSLYDSFYYSNYVNAKLSLWNENGKKRLHKMFARMGIPLSTAQETWLYMDHSIKRELGIIFDKNLDRYGLQDIIRDGFVRTLGYRGSISASEFVEALTALLEVGNSTDKDSVKINNDNNDDTDGEEEEDNSAQKLTNLRKRWVSNFWLSWDALDDRKVELLNRGIQLAQDLQRAIFNTGVAILEKKLIKHLRIYRLCVLQDGPDLDLYRNPLTLLRLGNWLIECCAESEDKQLLPMVLASIDENTDTYLVAGLTPRYPRGLDTIHTKKPILNNFSMAFQQITAETDAKVRIDNFESSIIEIRREDLSPFLEKLTLSGLL
B2: GST-Dpb11-wild-type [budding yeast] / PKA-Sld2T84D [modified: 32P-phosphate on the artificial PKA site; 32P-phosphate on the artificial PKA site] [budding yeast] (parent)
chain 1: B1 chain 1
chain 2: MYSFELDKLKIELKTWEHDFIDKNKREPTRDDIKSLRTVRQMYKQYSTLKKKQSLQRQKVDTQESVELPAHKKDHDEVVEIGPDPQVYGKAISIFDMNLSPIKPIYMTFTNNIDVNNDNSKTISNESSPRKTILLKSSPADRTLVAEPISSVKRQLNFQMLNASSTRTPTSSPCKNRNGKLVEIKKCSPTINPPLESGKPSGYYGPNSPLKLDEENIHLNISLNSSTKRRLQIAYPSLQKTPSKDQADISTSFSPSPLIRRPLTKSLIELAREHTEIVKEFGVLQEEDIEEEEEGEEGENGYDEKNHEDDFGLEDELIRPKVVKDIFQEDDDNDDSQAREDTFIRKRPKRRKVIRRLRDNDPETETAGFERDVHKELVKLKRRKVAEFLGSTSQISDTEFEHDPEASSGVVSSEQKPTAKRKGRKKYNLVSNNFRRLKLPKKNRFSNGRWGRR

Key:
[1] = variants of: B1; test: GST pull-down, phosphorimaging; settings: with Cdc45 (purified, radiolabelled) [budding yeast], 10 pmoles GST-Dpb11, read off a plot
[2] = variants of: B2; test: GST pull-down, phosphorimaging; settings: with PKA-Sld2T84D [modified: 32P-phosphate on the artificial PKA site

Row | Variant | response ([1]; 1 pmole Cdc45 input, parent: 0.11) | response ([1]; 3 pmoles Cdc45 input, parent: 0.44) | response ([1]; 10 pmoles Cdc45 input, parent: 0.89) | response ([2]; 10 pmoles GST-Dpb11, 1 pmole Sld2T84D input, parent: 0.28, read off a plot) | response ([2]; 10 pmoles GST-Dpb11, 3 pmoles Sld2T84D input, parent: 0.64, read off a plot) | response ([2]; 10 pmoles GST-Dpb11, 10 pmoles Sld2T84D input, parent: 1.6, read off a plot)
1 | chain 1 K463E K469E R538E K549E | 0.1 pmol | 0.42 pmol | 0.85 pmol | – | – | –
2 | chain 1 K463E K469E R538E K549E | – | – | – | 0.3 pmol | 0.72 pmol | 1.7 pmol
